Source: patent US20220340678A1 (MURAL ONCOLOGY, published 2022)

T1: IL-2/IL-15 receptor on HH cells (human)
T1 chain 1: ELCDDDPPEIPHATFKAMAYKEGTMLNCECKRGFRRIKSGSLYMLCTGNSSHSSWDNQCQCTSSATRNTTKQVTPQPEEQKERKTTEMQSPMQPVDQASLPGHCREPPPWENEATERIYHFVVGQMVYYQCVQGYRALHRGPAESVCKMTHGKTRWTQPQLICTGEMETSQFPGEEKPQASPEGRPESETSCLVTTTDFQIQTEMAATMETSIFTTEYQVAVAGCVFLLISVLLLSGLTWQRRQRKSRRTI
T1 chain 2: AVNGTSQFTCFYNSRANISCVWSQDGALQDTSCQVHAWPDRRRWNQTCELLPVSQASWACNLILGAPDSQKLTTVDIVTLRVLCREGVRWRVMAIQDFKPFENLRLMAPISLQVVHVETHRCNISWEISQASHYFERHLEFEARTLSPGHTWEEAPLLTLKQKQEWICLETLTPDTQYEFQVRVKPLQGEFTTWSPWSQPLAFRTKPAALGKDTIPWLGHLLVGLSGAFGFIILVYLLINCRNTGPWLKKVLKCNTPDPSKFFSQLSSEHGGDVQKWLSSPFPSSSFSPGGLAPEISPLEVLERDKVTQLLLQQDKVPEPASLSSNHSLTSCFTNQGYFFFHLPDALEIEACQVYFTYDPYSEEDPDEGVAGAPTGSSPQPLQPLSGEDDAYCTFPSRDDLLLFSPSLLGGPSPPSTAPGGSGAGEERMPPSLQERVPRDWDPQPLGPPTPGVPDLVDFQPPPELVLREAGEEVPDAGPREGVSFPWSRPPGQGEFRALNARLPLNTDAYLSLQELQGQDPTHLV
T1 chain 3: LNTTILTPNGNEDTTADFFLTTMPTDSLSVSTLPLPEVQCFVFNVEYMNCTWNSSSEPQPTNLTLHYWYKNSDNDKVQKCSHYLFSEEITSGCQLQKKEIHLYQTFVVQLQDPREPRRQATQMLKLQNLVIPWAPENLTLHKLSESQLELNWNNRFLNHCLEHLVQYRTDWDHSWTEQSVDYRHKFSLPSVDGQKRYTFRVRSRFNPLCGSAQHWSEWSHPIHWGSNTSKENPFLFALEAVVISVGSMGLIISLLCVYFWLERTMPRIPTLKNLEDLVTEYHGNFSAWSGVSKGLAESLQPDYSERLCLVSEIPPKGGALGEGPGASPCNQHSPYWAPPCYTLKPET

T2: IL-12 p40 C177S variant (human, UniProt P29460 23-328)
T2 sequence: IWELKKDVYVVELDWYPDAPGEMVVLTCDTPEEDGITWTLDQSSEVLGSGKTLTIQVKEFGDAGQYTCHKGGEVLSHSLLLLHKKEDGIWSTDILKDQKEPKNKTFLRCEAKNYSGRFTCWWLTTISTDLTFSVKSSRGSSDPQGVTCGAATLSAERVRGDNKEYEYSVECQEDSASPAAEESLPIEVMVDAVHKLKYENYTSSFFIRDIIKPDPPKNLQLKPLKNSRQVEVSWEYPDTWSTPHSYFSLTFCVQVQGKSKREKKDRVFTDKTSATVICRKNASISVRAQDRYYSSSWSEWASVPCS

T3: IL-12 p40 C177F variant (human, UniProt P29460 23-328)
T3 sequence: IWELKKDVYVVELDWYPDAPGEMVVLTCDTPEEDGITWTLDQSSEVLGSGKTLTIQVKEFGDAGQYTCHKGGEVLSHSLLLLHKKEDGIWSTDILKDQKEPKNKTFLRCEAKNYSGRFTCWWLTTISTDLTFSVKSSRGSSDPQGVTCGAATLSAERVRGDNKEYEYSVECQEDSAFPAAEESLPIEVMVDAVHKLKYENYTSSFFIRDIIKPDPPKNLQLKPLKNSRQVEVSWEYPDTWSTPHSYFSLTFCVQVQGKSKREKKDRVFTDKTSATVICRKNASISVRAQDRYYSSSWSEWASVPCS


Legend:
[1] = biological target: T1, IL-2/IL-15 receptor on HH cells; experiment: cell-based or functional assay
[2] = biological target: Recombinant human uPAR his (R&D Systems, 807-UK-100/CF) (human, UniProt Q03405 23-303, biotinylated (sites not given)); experiment: SPR (Biacore), biotinylated human uPAR his on streptavidin chip
IL-12 p40 C177S variant = biological target: T2, IL-12 p40 C177S variant; experiment: BLI (Octet), p35 C74 variant against p40 C177S
IL-12 p40 C177F variant = biological target: T3, IL-12 p40 C177F variant; experiment: BLI (Octet), p35 C74 variant against p40 C177F

Row | Binder | pSTAT5 EC50, HH cells [1] | Kd [2] | koff [2] | kon [2] | Kd (IL-12 p40 C177S variant) | koff (IL-12 p40 C177S variant) | kon (IL-12 p40 C177S variant) | Kd (IL-12 p40 C177F variant) | koff (IL-12 p40 C177F variant) | kon (IL-12 p40 C177F variant)
1 | Human cpIL-2:IL-2Ra:Human uPA-ATF-His6 (other, also called 99) SKNFHLRPRDLISNINVIVLELKGSETTFMCEYADETATIVEFLNRWITFSQSIISTLTGGSSSTKKTQLQLEHLLLDLQMILNGINNYKNPKLTRMLTFKFYMPKKATELKHLQCLEEELKPLEEVLNLAQGSGGGSELCDDDPPEIPHATFKAMAYKEGTMLNCECKRGFRRIKSGSLYMLCTGNSSHSSWDNQCQCTSSATRNTTKQVTPQPEEQKERKTTEMQSPMQPVDQASLPGHCREPPPWENEATERIYHFVVGQMVYYQCVQGYRALHRGPAESVCKMTHGKTRWTQPQLICTGGGSGGSNELHQVPSNCDCLNGGTCVSNKYFSNIHWCNCPKKFGGQHCEIDKSKTCYEGNGHFYRGKASTDTMGRPCLPWNSATVLQQTYHAHRSDALQLGLGKHNYCRNPDNRRRPWCYVQVGLKPLVQECMVHDCAHHHHHH | 1.5 nM | 0.59 nM | 0.00049 s⁻¹ | 830000 M⁻¹ s⁻¹ |  |  |  |  |  | 
2 | Human cpIL-2:IL-2Ra (other) SKNFHLRPRDLISNINVIVLELKGSETTFMCEYADETATIVEFLNRWITFSQSIISTLTGGSSSTKKTQLQLEHLLLDLQMILNGINNYKNPKLTRMLTFKFYMPKKATELKHLQCLEEELKPLEEVLNLAQGSGGGSELCDDDPPEIPHATFKAMAYKEGTMLNCECKRGFRRIKSGSLYMLCTGNSSHSSWDNQCQCTSSATRNTTKQVTPQPEEQKERKTTEMQSPMQPVDQASLPGHCREPPPWENEATERIYHFVVGQMVYYQCVQGYRALHRGPAESVCKMTHGKTRWTQPQLICTG | 1.1 nM |  |  |  |  |  |  |  |  | 
3 | IL-12 p35 C74D variant (other) RNLPVATPDPGMFPCLHHSQNLLRAVSNMLQKARQTLEFYPCTSEEIDHEDITKDKTSTVEACLPLELTKNESDLNSRETSFITNGSCLASRKTSFMMALCLSSIYEDLKMYQVEFKTMNAKLLMDPKRQIFLDQNMLAVIDELMQALNFNSETVPQKSSLEEPDFYKTKIKLCILLHAFRIRAVTIDRVMSYLNAS |  |  |  |  | 57.1 nM | 0.001 s⁻¹ | 17600 M⁻¹ s⁻¹ | 60.2 nM | 0.000719 s⁻¹ | 11900 M⁻¹ s⁻¹
4 | His6:Human uPA-ATF:hIL-15Ra:cpIL-15 (other, also called 100) HHHHHHSNELHQVPSNCDCLNGGTCVSNKYFSNIHWCNCPKKFGGQHCEIDKSKTCYEGNGHFYRGKASTDTMGRPCLPWNSATVLQQTYHAHRSDALQLGLGKHNYCRNPDNRRRPWCYVQVGLKPLVQECMVHDCAGGSGGITCPPPMSVEHADIWVKSYSLYSRERYICNSGFKRKAGTSSLTECVLNKATNVAHWTTPSLKCIRDGGSELEEKNIKEFLQSFVHIVQMFINGGGSNWVNVISDLKKIEDLIQSMHIDATLYTESDVHPSCKVTAMKCFLLELQVISLESGDASIHDTVENLIILANNSLSSNGNVTESGCKEC | 0.18 nM | 1.1 nM | 0.00056 s⁻¹ | 500000 M⁻¹ s⁻¹ |  |  |  |  |  | 
5 | Human IL-15Ra:cpIL-15 (other) ITCPPPMSVEHADIWVKSYSLYSRERYICNSGFKRKAGTSSLTECVLNKATNVAHWTTPSLKCIRDGGSELEEKNIKEFLQSFVHIVQMFINGGGSNWVNVISDLKKIEDLIQSMHIDATLYTESDVHPSCKVTAMKCFLLELQVISLESGDASIHDTVENLIILANNSLSSNGNVTESGCKEC | 0.039 nM |  |  |  |  |  |  |  |  | 

More lines, now with the values ahead:

Row | pSTAT5 EC50, HH cells [1] | Kd [2] | koff [2] | kon [2] | Kd (IL-12 p40 C177S variant) | koff (IL-12 p40 C177S variant) | kon (IL-12 p40 C177S variant) | Kd (IL-12 p40 C177F variant) | koff (IL-12 p40 C177F variant) | kon (IL-12 p40 C177F variant) | Binder
6 |  | 2.2 nM | 0.001 s⁻¹ | 460000 M⁻¹ s⁻¹ |  |  |  |  |  |  | Human uPA-ATF:Human cpIL-2:IL-2Ra:His6 (other, also called 98) SNELHQVPSNCDCLNGGTCVSNKYFSNIHWCNCPKKFGGQHCEIDKSKTCYEGNGHFYRGKASTDTMGRPCLPWNSATVLQQTYHAHRSDALQLGLGKHNYCRNPDNRRRPWCYVQVGLKPLVQECMVHDCAGGSGGSKNFHLRPRDLISNINVIVLELKGSETTFMCEYADETATIVEFLNRWITFSQSIISTLTGGSSSTKKTQLQLEHLLLDLQMILNGINNYKNPKLTRMLTFKFYMPKKATELKHLQCLEEELKPLEEVLNLAQGSGGGSELCDDDPPEIPHATFKAMAYKEGTMLNCECKRGFRRIKSGSLYMLCTGNSSHSSWDNQCQCTSSATRNTTKQVTPQPEEQKERKTTEMQSPMQPVDQASLPGHCREPPPWENEATERIYHFVVGQMVYYQCVQGYRALHRGPAESVCKMTHGKTRWTQPQLICTGHHHHHH
7 |  |  |  |  | 27 nM | 0.000432 s⁻¹ | 16000 M⁻¹ s⁻¹ | 25.4 nM | 0.000291 s⁻¹ | 11500 M⁻¹ s⁻¹ | IL-12 p35 C74W variant (other) RNLPVATPDPGMFPCLHHSQNLLRAVSNMLQKARQTLEFYPCTSEEIDHEDITKDKTSTVEACLPLELTKNESWLNSRETSFITNGSCLASRKTSFMMALCLSSIYEDLKMYQVEFKTMNAKLLMDPKRQIFLDQNMLAVIDELMQALNFNSETVPQKSSLEEPDFYKTKIKLCILLHAFRIRAVTIDRVMSYLNAS
8 |  |  |  |  | 23.2 nM | 0.000411 s⁻¹ | 17700 M⁻¹ s⁻¹ | 23.8 nM | 0.000298 s⁻¹ | 12500 M⁻¹ s⁻¹ | IL-12 p35 C74Y variant (other) RNLPVATPDPGMFPCLHHSQNLLRAVSNMLQKARQTLEFYPCTSEEIDHEDITKDKTSTVEACLPLELTKNESYLNSRETSFITNGSCLASRKTSFMMALCLSSIYEDLKMYQVEFKTMNAKLLMDPKRQIFLDQNMLAVIDELMQALNFNSETVPQKSSLEEPDFYKTKIKLCILLHAFRIRAVTIDRVMSYLNAS
9 |  |  |  |  | 19.6 nM | 0.000508 s⁻¹ | 25900 M⁻¹ s⁻¹ | 18.4 nM | 0.000295 s⁻¹ | 16000 M⁻¹ s⁻¹ | IL-12 p35 C74K variant (other) RNLPVATPDPGMFPCLHHSQNLLRAVSNMLQKARQTLEFYPCTSEEIDHEDITKDKTSTVEACLPLELTKNESKLNSRETSFITNGSCLASRKTSFMMALCLSSIYEDLKMYQVEFKTMNAKLLMDPKRQIFLDQNMLAVIDELMQALNFNSETVPQKSSLEEPDFYKTKIKLCILLHAFRIRAVTIDRVMSYLNAS
